Key:
[1] = target: T1, CmrR (Clostridioides difficile R20291) (UniProt A0A9R0CG09); test: EMSA; conditions: EMSA: 15 nM probe, 1x binding buffer 20 mM Tris pH 8, 1 mM EDTA, 10 mM MgCl2, 100 mM NaCl, 5% glycerol, plus half volume protein in His6 buffer (10 mM Tris …)
T1 sequence: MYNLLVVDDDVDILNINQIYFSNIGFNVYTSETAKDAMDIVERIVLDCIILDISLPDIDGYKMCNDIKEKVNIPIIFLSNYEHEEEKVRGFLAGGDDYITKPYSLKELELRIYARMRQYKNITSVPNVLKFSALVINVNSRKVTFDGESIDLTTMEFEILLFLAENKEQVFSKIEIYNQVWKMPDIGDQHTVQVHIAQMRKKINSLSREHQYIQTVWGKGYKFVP

[2] = target: CmrT-D9A fused to the smbit or lgbit portion of split luciferase (C. difficile two-hybrid) (Clostridioides difficile R20291); test: split reporter (BiFC, NanoBiT); C. difficile bacterial two-hybrid with split luciferase (smbit, lgbit) from one ATc-inducible transcript; 200 ng/mL ATc for 1 h in BHIS-Tm10; Nano-Glo reagent; luminescence per OD600
[3] = target: CmrT fused to the smbit or lgbit portion of split luciferase (C. difficile two-hybrid) (Clostridioides difficile R20291); test: as above
[4] = target: CmrT-K102A fused to the smbit or lgbit portion of split luciferase (C. difficile two-hybrid) (Clostridioides difficile R20291); test: as above

CTAGCCAATAGACAAGTTTCTAGAAAAATAATAAATTTATAAGTGAAAATGACTTTAAGCTCCATTCTCCAACAATCGGAGACTTTAATTAGTATTTAATAATAAATCTTAATGTTCAATACAATATTCAAGAATTGTTCAAAAATACTTAAG (double strand) [probe 9 (cmr switch in other orientation than probe 6)]
binding [1]: binds

CmrT-D9A fused to the smbit or lgbit portion of split luciferase (C. difficile two-hybrid) (natural protein)
log10 fold change of luciferase signal against wild-type CmrT (log10 fold change) [2]: -1.27

CmrT fused to the smbit or lgbit portion of split luciferase (C. difficile two-hybrid) (natural protein)
log10 fold luciferase activity over the negative control [3]: 3.6 log10 fold

CmrT-K102A fused to the smbit or lgbit portion of split luciferase (C. difficile two-hybrid) (natural protein)
log10 fold change of luciferase signal against wild-type CmrT (log10 fold change) [4]: -0.64

GTATTTAATAATAAATCTTAATGTTCAATACAATATTCAAGAATTGTTCAAAAATACTTAAGTATTATAGTCTAGTTTGTAAAGATATTATAAAATAATAATACTAGTTATATATGAAAATAAAACATTATAATTTGTAATAATTATAAAACTTGAGATTATGATTAAAATACCTTTGAATGGAGTGGTGTAATGTATAATTTACTGGTTGTAGATGATGATGTTG (double strand) [probe 7 (TSS4, 226 bp)]
binding [1]: binds

TTGCACCACTAACTCCATATATCTCCAGATGCCCAATAATAAGATATACTTCTCAGTTTCTAAAATATTTTTATTAAAAATCTTTTATATATTTTCATAAATTTCTTTTTTATTCTAACATTGTAATATTATTTTGTCAATATTTCCATATTTTTAGATATAAGATACTAAAATACCTATTTTATCTAAAGATATTTATATTTCTACATTCAATAATAGACAATACCCTGCAAGTTAAAGCATC (double strand) [probe 1 (upstream of TSS1)]
binding [1]: no binding

ATTCAAGAATTGTTCAAAAATACTTAAGTATTATAGTCTAGTTTGTAAAGATATTATAAAATAATAATACTAGTTATATATGAAAATAAAACATTATAATTTGTAATAATTATAAAACTTGAGATTATGATTAAAATACCTTTGAATGGAGTGGTGTAATGTATAATTTACTGGTTGTAGATGATGATGTTG (double strand) [probe 4 (TSS4, 192 bp)]
binding [1]: binds more weakly

GCCAAAATTTCACCTATCAATAAAAATCTTAACGACTAATACTCTTATTTTCAAATTTTGCAACATTTTTGTTAATTTTAAAGCAAAAAAAGACTATGCAATATAAAAATTATATTCATAGCCGGTTGCACCACTAACTCCATATATCTCC (double strand) [probe 2]
binding [1]: no binding

Reference: article PMC12548384
